Ends that are not written are not given here. * marks the point of attachment. Biotin = O=C1N[C@H]2[C@H](CS[C@H]2CCCCC(=O)*)N1
Assays:
[1] = target: T1, full-length human Nav1.7 fused at its N-terminus to GFP, expressed in HEK293 cells (human, UniProt Q15858 1-1988); test: cell-based or functional assay
[2] = target: T2, C-term Biotin Nav1.7 (3-1) peptide, human (human, not fully specified; C-terminal biotin attached via a G4S linker); test: SPR, captured biotin-peptide, antibody analyte
T2 construct: Synthetic peptide; also called Human Nav1.7 3-1 C-term biotin
T2 peptide: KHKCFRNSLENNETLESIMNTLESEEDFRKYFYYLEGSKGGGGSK

[3] = target: T3, N-Term Biotin Nav1.7 (3-1) peptide, mulatta (mulatta (monkey), not fully specified; N-terminal biotin attached via a G4S linker); test: ELISA on coated peptide, antibody 1 ug/ml, OD450 grade
T3 construct: Synthetic peptide; also called Mulatta Nav1.7 3-1 N-term biotin; monkey
T3 peptide: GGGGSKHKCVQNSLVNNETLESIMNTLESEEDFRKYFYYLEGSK
Summary of the method: (§1)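 Peptides coated at 4 μg/mL in PBS, or biotinylated peptides captured at 0.4 μg/mL on avidin (2 μg/mL). Antibodies at 0.1 and 1.0 μg/mL, 1 h at room temperature, detected with HRP anti-mouse or anti-human IgG and TMB at OD450. Scores at 1 μg/ml: <0.2 −; 0.2–1 +; 1–2 ++; 2–4 +++.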

[4] = target: T4, Native Nav1.7 (3-1) peptide, rat (rat); test: as above
T4 construct: Synthetic peptide; also called Rat Nav1.7 3-1 native
T4 peptide: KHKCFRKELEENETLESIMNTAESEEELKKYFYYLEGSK
Summary of the method: as §1

[5] = target: T5, N-Term Biotin-Nav1.7 (3-1) peptide, human (human, not fully specified; N-terminal biotin attached via a G4S linker); test: as above
T5 construct: ELISA peptide
T5 peptide: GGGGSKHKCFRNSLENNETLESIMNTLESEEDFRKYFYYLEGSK
Summary of the method: as §1

[6] = target: T1, full-length human Nav1.7 fused at its …; test: flow cytometry; % stained hNav1.7-GFP-HEK293 minus parental HEK293
Summary of the method: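 Antibody (1-13 nM) incubated 20 min on ice with stably transfected hNav1.7-GFP-HEK293 or parental HEK293 cells in PBS/5% FBS, then 1.7 nM Cy5- or APC-labelled anti-Fc secondary for 20 min on ice. Flow cytometry of live-gated cells; specific binding = % stained transfected minus % stained parental.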

[7] = target: T6, Native Nav1.7 (3-1) peptide, human (human); test: SPR, captured antibody, peptide analyte; IC = binding data could not be fit
T6 construct: Synthetic peptide (Celtek), unbiotinylated; also called Human Nav1.7 3-1 native; Nav1.7 3-1 native peptide
T6 peptide: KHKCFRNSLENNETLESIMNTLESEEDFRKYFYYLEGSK
Experimental: The binding affinities of anti-Naᵥ 1.7 antibodies to Naᵥ 1.7 loop peptides were determined by Biacore. For monovalent kinetic experiments, antibodies were captured through the Fc region via a goat anti-Fc-coupled biosensor surface, and the peptides (as analyte) were injected over this captured antibody surface. For bivalent (avidity-driven) kinetic experiments, biotinylated peptides corresponding to the Naᵥ 1.7 3-1, 3-3, or paddle loop sequences were captured on a NeutrAvidin sensor surface, and anti-Naᵥ 1.7 antibodies (as analyte) were injected over this surface. Following the capture step, each analyte was individually injected at several concentrations over its respective capture surface, and changes in bound surface units (RU) were monitored. The dissociation rate is independent of the concentration of analyte used in the experiment, and the dissociation rate constant (kd) was determined from the change in antibody-bound analyte RU over time. The Biacore kinetic data were obtained using a double referencing procedure. […] The KD was calculated as the dissociation rate constant divided by the association rate constant (KD=kd/kₐ). The dissociative half-life (t_{1/2}) was calculated from the dissociation rate constant (t_{1/2}=In2/kd).

[8] = target: T6, Native Nav1.7 (3-1) peptide, human; test: Biacore (second token of ELISA/Biacore summary)
[9] = target: T3, N-Term Biotin Nav1.7 (3-1) peptide, …; test: ELISA on coated peptide
Experimental: (§2) Anti-Naᵥ 1.7 antibodies were tested for their ability to bind to the Naᵥ 1.7 peptides. The various peptides were coated overnight onto 96-well Nunc Immunosorp plates at a concentration of 4 μg/mL in PBS, followed by blocking for 1 hour in a suitable blocking agent. For biotinylated peptides, avidin was first coated on Nunc Immunosorp plates at 2 μg/mL in PBS overnight, followed by blocking as described, and the plate was then coated with biotinylated peptides at a concentration of 0.4 μg/mL and incubated for 1 hour at room temperature. Purified anti-Naᵥ 1.7 antibodies were diluted to a final concentration of 0.1 μg/mL and 1.0 μg/mL and added to the wells of the coated microtiter plates followed by incubation for 1 hour at room temperature. Bound antibodies were detected with horseradish peroxidase (HRP) conjugated anti-mouse or anti-human IgG (Jackson Immuno Research Lab, West Grove, Pa.) depending on the antibody species and developed by colorimetric response using tetramethylbenzidine (TMB) substrate (BD Biosciences). Absorbance was read at OD₄₅₀ on a plate reader for 0.1 second.
(§3) Values in Table 11 represent absolute binding ranges (at OD450) to plate-coated peptides for antibodies added at 1 μg/ml as follows: OD450<0.2: −; 0.2<OD450<1: +; 1<OD450<2: ++; 2<OD450<4: +++; NT: Not Tested.

[10] = target: T6, Native Nav1.7 (3-1) peptide, human; test: SPR, captured antibody, peptide analyte
Summary of the method: (§4)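 Biacore SPR: antibody captured via Fc on anti-Fc surface, Nav1.7 loop peptides injected as analyte at several concentrations. Double-referenced sensorgrams globally fitted to a 1:1 model; KD = kd/ka, t1/2 = ln2/kd.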

[11] = target: T3, N-Term Biotin Nav1.7 (3-1) peptide, …; test: SPR, captured antibody, peptide analyte
Summary of the method: as §4

[12] = target: T7, Native Nav1.7 (Paddle) peptide, human (human); test: SPR, captured antibody, peptide analyte
T7 construct: Synthetic peptide, unbiotinylated; also called Human Nav1.7 paddle native
T7 peptide: TEFVNLGNVSALRT
Summary of the method: as §4

[13] = target: T8, N-term Biotin Nav1.7 (Paddle) peptide, human (human, not fully specified); test: ELISA on coated peptide, antibody 1 ug/ml, OD450 grade
T8 construct: ELISA peptide
T8 peptide: Biotin-GGGGSTEFVNLGNVSALRT
Summary of the method: as §1

[14] = target: T9, N-Term Biotin Nav1.7 (Paddle) peptide, mulatta (mulatta (monkey), not fully specified); test: as above
T9 construct: ELISA peptide
T9 peptide: Biotin-GGGGSTEFVDLGNVSALRT
Summary of the method: as §1

[15] = target: T10, Native Nav1.7 (3-3) peptide, rat (rat); test: ELISA on coated peptide
T10 construct: ELISA peptide
T10 peptide: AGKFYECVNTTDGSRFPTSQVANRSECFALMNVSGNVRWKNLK
Experimental: as §2, §3

[16] = target: T11, N-Term Biotin-Nav1.7 (3-3) peptide, human (same sequence of EC3-3 for mulatta) (human (same sequence of EC3-3 for …, not fully specified; N-terminal biotin attached via a G4S linker); test: ELISA on coated peptide, antibody 1 ug/ml, OD450 grade; Human
T11 construct: ELISA peptide
T11 peptide: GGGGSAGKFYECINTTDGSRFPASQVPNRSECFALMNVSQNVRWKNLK
Experimental: as §2, §3

[17] = target: T11, N-Term Biotin-Nav1.7 (3-3) peptide, …; test: ELISA on coated peptide, antibody 1 ug/ml, OD450 grade; Monkey column
Experimental: as §2, §3

[18] = target: T12, N-term Biotin Nav1.7 (3-3) peptide, mouse (mouse, N-terminal biotin attached via a G4S linker); test: ELISA on coated peptide
T12 construct: ELISA peptide
T12 peptide: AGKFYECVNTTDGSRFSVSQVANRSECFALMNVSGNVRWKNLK
Experimental: as §2, §3

[19] = target: T10, Native Nav1.7 (3-3) peptide, rat; test: ELISA on coated peptide, antibody 1 ug/ml, OD450 grade
Summary of the method: as §1

B1: H1H1003B (antibody, V domains shown)
VH: QVQLVESGGGLVQPGGSLRLSCAASGFTLSSYAMSWVRQAPGKGLEWVSTISGSGIIYYTDSVKGRFTISRDSSKNTLYLQMNSLRVEDTAVYYCAKDRGAAAGAFDYWGQGTLVTVSS
VL: AIQLTQSPDSLAVSLGERATIKCKSSQSVLYSSNNKNYLAWYQQKPGQPPNLLIYWASTRESGVPDRFSGSGSGTDFTLTISSLQAEDVAVYYCQQYFSFGQGTKVDIKR
- Current blocking (Average % inhibition), IonWorks Quattro, 223 nM antibody [1]: 32.5%
- Kd [2]: 2.64 nM
- t1/2 [2]: 27.8 min
- OD450 [3]: 2 to 4 od
- OD450 [4]: 2 to 4 od
- OD450 [5]: 2 to 4 od
- % Binding Nav1.7 [6]: 1.3%
- binding result [7]: binds

B2: H4H439B (antibody, V domains shown)
VH: QVQLQQWGAGLLKPSETLSLTCAVYGGSFSGHYWSWIRQPPGKGLEWIGEINHRGSTNYNPSLKSRATISVDTSKNQFSLKLSSVTAADTAVYYCAREGSLAARLWFFDLWGRDTLVTVSS
VL: DIQMTQSPSSLSASVGDRGTITCRASQDIRTYLNWYQQKPGKAPKLLIYAASSLQSGVPSRFSGSGSGTDFTLTISSLQPEDFATYYCQQSYGTPYTFGQGTKVEIKR
- Current blocking (Average % inhibition), IonWorks Quattro, 223 nM antibody [1]: 33.6%
- binding result [8]: binds
- OD450 [3]: 2 to 4 od
- OD450 [4]: 1 to 2 od
- OD450 [5]: 2 to 4 od

B3: H4H448B (antibody, V domains shown)
VH: EVQLVQSGGGLVQPGRSLRLSCAASGFTFDDYAMHWVRQAPGKGLEWVSGISWNSGSIGYADSVKGRFTISRDNAKNSLYLQMNSLRAEDTALYYCAKDIEYYDILTGYYSYYIMDVWGQGTTVTVSS
VL: DIRMTQSPSSLSASVGDRGTITCRASQNINSYLNWYQLKPGKAPKLLIFAASSLQSGVPSRFSGSGSGTDFTLTISSLQPEDFATYYCQQSYSSPFTFGQGTKVEIKR
- OD450 [9]: < 0.2 od
- Kd [10]: 21.9 nM
- t1/2 [10]: 1.8 min
- binding result [11]: no binding
- OD450 [5]: 2 to 4 od

B4: H1M683N (antibody, V domains shown)
VH: QVQLVESGGGVVQPGRSLSLSCAASGFTFSNYGMHWVRQAPGKGLEWVAAISYDGNTKYYVDSVKGRFTISRDNSKNTLYLQMNSLRGEDMAVYYCVGARPGYDHYGMDVWGQGTTVTVSS
VL: DIQLTQSPSFLSTSVGDRVTITCWASQGISSYLAWYQQKPGKAPNLLIYTASTLQSGVPSRFSGSGSGTEFTLTISSLQPEDFATYYCQQLNSYPYTFGQGTKLEIK
notes: Loop specificity 2-1 (paddle)
- Kd [12]: 9.4 nM
- t1/2 [12]: 18 min
- binding result [2]: no binding
- OD450 [13]: 1 to 2 od
- OD450 [14]: 0.2 to 1 od

B5: H4H471B (antibody, V domains shown)
VH: EVQLVESGGGLVKPGGSLRLSCAASGVTFSDYYMTWIRQAPGKGLEWVSYISTDGRTIYYADSVKGRFTISRDNAKNSLYLQMNNLRAEDTAVYYCARGVDSDDYEDFYSYYDMDVWGQGTTVTVSS
VL: DIQMTQSPSSLSASVGDRVTITCRASQGISNYLAWFQQKPGKAPKSLIYAASSLQGGVPSRFSGSGSGTDFTLTISSLQPEDFATYYCQQYNSYPLTFGGGTKVEIKR
- Current blocking (Average % inhibition), IonWorks Quattro, 223 nM antibody [1]: 57%
- OD450 [15]: < 0.2 od
- OD450 [16]: 2 to 4 od
- OD450 [17]: 2 to 4 od

B6: H4H468B (antibody, V domains shown)
VH: EVQLVQSGGGVVQPGRSLRLSCTASGFTFSVYGIHWVRQAPGKGLEWVAVIWYDGSNKYYTDSVKGRFTISRDNSKNTLYLQMNSLRAEDTALYYCAREGDLSSSSGSGGYHYVVDVWGQGTMVTVSS
VL: DIQMTQSPSSLSASVGDRVTITCRASQDIRNDLGWYQQKPGNAPKLLIYSTSSLQSGVPSRFSGSGSGTDFTLTISSLQPEDFATYYCLQDYNYPLTFGGGTKVEIKR
- OD450 [18]: < 0.2 od
- OD450 [19]: 2 to 4 od
- OD450 [16]: 1 to 2 od
- OD450 [17]: 1 to 2 od

Source: patent US20160024208A1 (Regeneron, published 2016)
